Measured values reported in paper PMC9482650, “Quantitative fragmentomics allow affinity mapping of interactomes” (Nature Communications, 2022).

T1: ARHGEF11, O15085
T1 sequence (O15085 42-136, limits assumed, looked up): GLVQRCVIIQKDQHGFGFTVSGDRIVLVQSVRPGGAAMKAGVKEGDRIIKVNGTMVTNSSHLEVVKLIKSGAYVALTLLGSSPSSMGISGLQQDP

T2: SNTA1, Q13424
T2 sequence (Q13424 82-180, limits assumed, looked up): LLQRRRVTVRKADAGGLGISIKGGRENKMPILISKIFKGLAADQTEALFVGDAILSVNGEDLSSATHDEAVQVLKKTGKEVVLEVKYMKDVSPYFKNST

T3: NHERF3_1, Q5T2W1
T3 sequence (Q5T2W1 4-100, limits assumed, looked up): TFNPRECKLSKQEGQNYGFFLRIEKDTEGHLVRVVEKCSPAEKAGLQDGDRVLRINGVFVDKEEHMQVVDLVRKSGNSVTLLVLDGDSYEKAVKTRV

T4: GRIP1_3, Q9Y3R0
T4 sequence (Q9Y3R0 247-346, limits assumed, looked up): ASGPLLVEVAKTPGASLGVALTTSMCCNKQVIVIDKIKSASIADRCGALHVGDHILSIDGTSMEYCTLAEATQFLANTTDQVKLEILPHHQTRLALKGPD

T5: DFNB31_3, Q9P202
T5 sequence (Q9P202 811-907, limits assumed, looked up): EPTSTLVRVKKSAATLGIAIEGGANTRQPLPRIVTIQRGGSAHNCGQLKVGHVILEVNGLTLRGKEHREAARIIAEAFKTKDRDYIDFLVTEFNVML

T6: CARD11, Q9BXL7
T6 sequence (Q9BXL7 662-765, limits assumed, looked up): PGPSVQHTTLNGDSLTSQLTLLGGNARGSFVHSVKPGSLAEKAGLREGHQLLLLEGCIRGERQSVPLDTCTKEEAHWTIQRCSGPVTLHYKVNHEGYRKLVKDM

T7: LNX2_3, Q8N448
T7 sequence (Q8N448 463-564, limits assumed, looked up): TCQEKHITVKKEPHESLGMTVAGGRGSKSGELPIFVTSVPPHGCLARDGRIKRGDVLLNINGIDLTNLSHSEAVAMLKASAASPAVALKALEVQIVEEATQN

T8: GRIP1_5, Q9Y3R0
T8 sequence (Q9Y3R0 568-668, limits assumed, looked up): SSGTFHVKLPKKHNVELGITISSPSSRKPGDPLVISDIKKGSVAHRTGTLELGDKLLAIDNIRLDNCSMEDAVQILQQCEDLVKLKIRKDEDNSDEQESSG

T9: MPDZ_10, O75970
T9 sequence (O75970 1624-1722, limits assumed, looked up): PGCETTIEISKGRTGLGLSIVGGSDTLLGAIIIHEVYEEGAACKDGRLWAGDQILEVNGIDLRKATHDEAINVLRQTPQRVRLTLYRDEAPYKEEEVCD

T10: RADIL, Q96JH8
T10 sequence (Q96JH8 971-1071, limits assumed, looked up): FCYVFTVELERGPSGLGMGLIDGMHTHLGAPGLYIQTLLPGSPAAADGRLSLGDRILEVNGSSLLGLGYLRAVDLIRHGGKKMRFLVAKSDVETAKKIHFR


Molecular target: FRMPD2_2, Q68DX3
Sequence (Q68DX3 944-1038): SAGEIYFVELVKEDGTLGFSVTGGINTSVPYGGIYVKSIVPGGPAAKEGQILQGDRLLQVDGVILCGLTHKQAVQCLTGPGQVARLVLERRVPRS
Assay: holdup assay
Design: key: below the threshold = too weak to quantify, mostly under pKd 3.1 to 4
Settings: plain residues with an end cap or a label only (N-terminal biotin on a linker: ado-ado)

Row | Binder | pKd
1 | NLQEHSTTSV [RSBN1, Q5VWQ0] | 3.97
2 | TGLWKSETTV [ADGRA2, Q96PE1] | 3.51

Molecular target: MAGI2_5, Q86UL8
Sequence (Q86UL8 915-1017): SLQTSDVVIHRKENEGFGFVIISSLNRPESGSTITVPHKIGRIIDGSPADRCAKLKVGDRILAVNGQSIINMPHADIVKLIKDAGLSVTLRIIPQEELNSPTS
Assay: holdup assay
Design: key: below the threshold = too weak to quantify, mostly under pKd 3.1 to 4
Settings: plain residues with an end cap or a label only (N-terminal biotin on a linker: ado-ado)

Row | Binder | pKd
3 | NLQEHSTTSV [RSBN1, Q5VWQ0] | 3.48
4 | TGLWKSETTV [ADGRA2, Q96PE1] | 4.12

Molecular target: DLG1_2, Q12959
Sequence (Q12959 314-412): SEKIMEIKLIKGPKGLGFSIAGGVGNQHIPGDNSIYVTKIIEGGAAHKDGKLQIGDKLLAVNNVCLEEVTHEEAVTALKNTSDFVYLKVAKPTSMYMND
Assay: holdup assay
Design: key: below the threshold = too weak to quantify, mostly under pKd 3.1 to 4
Settings: plain residues with an end cap or a label only (N-terminal biotin on a linker: ado-ado)

Row | Binder | pKd
5 | NLQEHSTTSV [RSBN1, Q5VWQ0] | 3.99
6 | TGLWKSETTV [ADGRA2, Q96PE1] | 5.26

Molecular target: PTPN3, P26045
Sequence (P26045 505-587): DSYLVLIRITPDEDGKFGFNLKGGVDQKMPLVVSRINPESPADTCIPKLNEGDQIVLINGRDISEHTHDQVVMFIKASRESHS
Assay: holdup assay
Design: key: below the threshold = too weak to quantify, mostly under pKd 3.1 to 4
Settings: plain residues with an end cap or a label only (N-terminal biotin on a linker: ado-ado)

Row | Binder | pKd
7 | NLQEHSTTSV [RSBN1, Q5VWQ0] | 4.49
8 | TGLWKSETTV [ADGRA2, Q96PE1] | 4.54

Molecular target: MAGI2_6, Q86UL8
Sequence (Q86UL8 1141-1229): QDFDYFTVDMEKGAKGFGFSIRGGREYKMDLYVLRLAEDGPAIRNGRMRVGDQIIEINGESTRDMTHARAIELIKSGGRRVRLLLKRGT
Assay: holdup assay
Design: key: below the threshold = too weak to quantify, mostly under pKd 3.1 to 4
Settings: plain residues with an end cap or a label only (N-terminal biotin on a linker: ado-ado)

Row | Binder | pKd
9 | NLQEHSTTSV [RSBN1, Q5VWQ0] | 4.16
10 | TGLWKSETTV [ADGRA2, Q96PE1] | 3.85

Molecular target: T1, ARHGEF11, O15085
Assay: holdup assay
Design: key: below the threshold = too weak to quantify, mostly under pKd 3.1 to 4
Settings: plain residues with an end cap or a label only (N-terminal biotin on a linker: ado-ado)

Row | Binder | pKd
11 | NLQEHSTTSV [RSBN1, Q5VWQ0] | 4.13
12 | TGLWKSETTV [ADGRA2, Q96PE1] | 4.13

Molecular target: GORASP1, Q9BQQ3
Sequence (Q9BQQ3 1-208): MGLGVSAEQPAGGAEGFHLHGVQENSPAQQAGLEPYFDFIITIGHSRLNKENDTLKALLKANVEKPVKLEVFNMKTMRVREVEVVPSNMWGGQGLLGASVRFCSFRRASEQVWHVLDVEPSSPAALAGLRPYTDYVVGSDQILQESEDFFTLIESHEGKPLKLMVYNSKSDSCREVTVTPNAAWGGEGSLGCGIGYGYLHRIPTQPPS
Assay: holdup assay
Design: key: below the threshold = too weak to quantify, mostly under pKd 3.1 to 4
Settings: plain residues with an end cap or a label only (N-terminal biotin on a linker: ado-ado)

Row | Binder | pKd
13 | NLQEHSTTSV [RSBN1, Q5VWQ0] | below the threshold
14 | TGLWKSETTV [ADGRA2, Q96PE1] | 3.5

Molecular target: Inadl_1, Q8NI35
Sequence (Q8NI35 113-229): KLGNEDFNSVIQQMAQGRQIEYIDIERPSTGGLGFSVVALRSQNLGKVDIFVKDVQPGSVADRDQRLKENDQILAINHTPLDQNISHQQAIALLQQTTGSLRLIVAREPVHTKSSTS
Assay: holdup assay
Design: key: below the threshold = too weak to quantify, mostly under pKd 3.1 to 4
Settings: plain residues with an end cap or a label only (N-terminal biotin on a linker: ado-ado)

Row | Binder | pKd
15 | NLQEHSTTSV [RSBN1, Q5VWQ0] | below the threshold
16 | TGLWKSETTV [ADGRA2, Q96PE1] | below the threshold

Molecular target: MAGI3_2, Q5TCQ9
Sequence (Q5TCQ9 398-503): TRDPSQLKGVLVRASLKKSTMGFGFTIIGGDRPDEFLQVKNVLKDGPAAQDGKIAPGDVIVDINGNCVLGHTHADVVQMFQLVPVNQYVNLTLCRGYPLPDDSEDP
Assay: holdup assay
Design: key: below the threshold = too weak to quantify, mostly under pKd 3.1 to 4
Settings: plain residues with an end cap or a label only (N-terminal biotin on a linker: ado-ado)

Row | Binder | pKd
17 | NLQEHSTTSV [RSBN1, Q5VWQ0] | 4.38
18 | TGLWKSETTV [ADGRA2, Q96PE1] | 5.6

Molecular target: T2, SNTA1, Q13424
Assay: holdup assay
Design: key: below the threshold = too weak to quantify, mostly under pKd 3.1 to 4
Settings: plain residues with an end cap or a label only (N-terminal biotin on a linker: ado-ado)

Row | Binder | pKd
19 | NLQEHSTTSV [RSBN1, Q5VWQ0] | below the threshold
20 | TGLWKSETTV [ADGRA2, Q96PE1] | 4.41

Molecular target: T3, NHERF3_1, Q5T2W1
Assay: holdup assay
Design: key: below the threshold = too weak to quantify, mostly under pKd 3.1 to 4
Settings: plain residues with an end cap or a label only (N-terminal biotin on a linker: ado-ado)

Row | Binder | pKd
21 | NLQEHSTTSV [RSBN1, Q5VWQ0] | below the threshold
22 | TGLWKSETTV [ADGRA2, Q96PE1] | below the threshold

Molecular target: T4, GRIP1_3, Q9Y3R0
Assay: holdup assay
Design: key: below the threshold = too weak to quantify, mostly under pKd 3.1 to 4
Settings: plain residues with an end cap or a label only (N-terminal biotin on a linker: ado-ado)

Row | Binder | pKd
23 | NLQEHSTTSV [RSBN1, Q5VWQ0] | below the threshold
24 | TGLWKSETTV [ADGRA2, Q96PE1] | below the threshold

Molecular target: MAGI2_2, Q86UL8
Sequence (Q86UL8 410-522): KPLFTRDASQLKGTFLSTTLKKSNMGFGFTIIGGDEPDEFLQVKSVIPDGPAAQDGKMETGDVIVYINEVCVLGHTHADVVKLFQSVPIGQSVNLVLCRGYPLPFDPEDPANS
Assay: holdup assay
Design: key: below the threshold = too weak to quantify, mostly under pKd 3.1 to 4
Settings: plain residues with an end cap or a label only (N-terminal biotin on a linker: ado-ado)

Row | Binder | pKd
25 | NLQEHSTTSV [RSBN1, Q5VWQ0] | 3.89
26 | TGLWKSETTV [ADGRA2, Q96PE1] | 5.37

Molecular target: T5, DFNB31_3, Q9P202
Assay: holdup assay
Design: key: below the threshold = too weak to quantify, mostly under pKd 3.1 to 4
Settings: plain residues with an end cap or a label only (N-terminal biotin on a linker: ado-ado)

Row | Binder | pKd
27 | NLQEHSTTSV [RSBN1, Q5VWQ0] | below the threshold
28 | TGLWKSETTV [ADGRA2, Q96PE1] | 3.88

Molecular target: DLG2_3, Q15700
Assay: holdup assay
Design: key: below the threshold = too weak to quantify, mostly under pKd 3.1 to 4
Settings: plain residues with an end cap or a label only (N-terminal biotin on a linker: ado-ado)

Row | Binder | pKd
29 | NLQEHSTTSV [RSBN1, Q5VWQ0] | 4
30 | TGLWKSETTV [ADGRA2, Q96PE1] | 4.5

Molecular target: NHERF4_2, Q86UT5
Sequence (Q86UT5 220-308): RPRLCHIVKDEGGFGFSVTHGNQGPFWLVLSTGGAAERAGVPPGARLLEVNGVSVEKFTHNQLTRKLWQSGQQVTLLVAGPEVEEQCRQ
Assay: holdup assay
Design: key: below the threshold = too weak to quantify, mostly under pKd 3.1 to 4
Settings: plain residues with an end cap or a label only (N-terminal biotin on a linker: ado-ado)

Row | Binder | pKd
31 | NLQEHSTTSV [RSBN1, Q5VWQ0] | below the threshold
32 | TGLWKSETTV [ADGRA2, Q96PE1] | below the threshold

Molecular target: T6, CARD11, Q9BXL7
Assay: holdup assay
Design: key: below the threshold = too weak to quantify, mostly under pKd 3.1 to 4
Settings: plain residues with an end cap or a label only (N-terminal biotin on a linker: ado-ado)

Row | Binder | pKd
33 | NLQEHSTTSV [RSBN1, Q5VWQ0] | below the threshold
34 | TGLWKSETTV [ADGRA2, Q96PE1] | below the threshold

Molecular target: DLG1_3, Q12959
Sequence (Q12959 457-571): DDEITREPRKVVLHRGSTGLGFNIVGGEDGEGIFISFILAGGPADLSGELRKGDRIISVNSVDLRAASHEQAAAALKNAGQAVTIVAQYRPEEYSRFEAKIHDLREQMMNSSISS
Assay: holdup assay
Design: key: below the threshold = too weak to quantify, mostly under pKd 3.1 to 4
Settings: plain residues with an end cap or a label only (N-terminal biotin on a linker: ado-ado)

Row | Binder | pKd
35 | NLQEHSTTSV [RSBN1, Q5VWQ0] | 3.76
36 | TGLWKSETTV [ADGRA2, Q96PE1] | 4.38

Molecular target: SCRIB_3, Q14160
Sequence (Q14160 999-1103): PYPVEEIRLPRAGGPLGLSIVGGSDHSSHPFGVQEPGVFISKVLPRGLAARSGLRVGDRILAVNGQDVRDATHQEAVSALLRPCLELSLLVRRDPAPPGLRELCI
Assay: holdup assay
Design: key: below the threshold = too weak to quantify, mostly under pKd 3.1 to 4
Settings: plain residues with an end cap or a label only (N-terminal biotin on a linker: ado-ado)

Row | Binder | pKd
37 | NLQEHSTTSV [RSBN1, Q5VWQ0] | 3.63
38 | TGLWKSETTV [ADGRA2, Q96PE1] | 4.4

Molecular target: Inadl_4, Q8NI35
Sequence (Q8NI35 547-651): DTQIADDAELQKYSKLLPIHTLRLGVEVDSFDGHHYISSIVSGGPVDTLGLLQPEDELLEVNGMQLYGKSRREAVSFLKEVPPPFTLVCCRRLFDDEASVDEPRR
Assay: holdup assay
Design: key: below the threshold = too weak to quantify, mostly under pKd 3.1 to 4
Settings: plain residues with an end cap or a label only (N-terminal biotin on a linker: ado-ado)

Row | Binder | pKd
39 | NLQEHSTTSV [RSBN1, Q5VWQ0] | below the threshold
40 | TGLWKSETTV [ADGRA2, Q96PE1] | below the threshold

Molecular target: T7, LNX2_3, Q8N448
Assay: holdup assay
Design: key: below the threshold = too weak to quantify, mostly under pKd 3.1 to 4
Settings: plain residues with an end cap or a label only (N-terminal biotin on a linker: ado-ado)

Row | Binder | pKd
41 | NLQEHSTTSV [RSBN1, Q5VWQ0] | below the threshold
42 | TGLWKSETTV [ADGRA2, Q96PE1] | below the threshold

Molecular target: T8, GRIP1_5, Q9Y3R0
Assay: holdup assay
Design: key: below the threshold = too weak to quantify, mostly under pKd 3.1 to 4
Settings: plain residues with an end cap or a label only (N-terminal biotin on a linker: ado-ado)

Row | Binder | pKd
43 | NLQEHSTTSV [RSBN1, Q5VWQ0] | below the threshold
44 | TGLWKSETTV [ADGRA2, Q96PE1] | below the threshold

Molecular target: T9, MPDZ_10, O75970
Assay: holdup assay
Design: key: below the threshold = too weak to quantify, mostly under pKd 3.1 to 4
Settings: plain residues with an end cap or a label only (N-terminal biotin on a linker: ado-ado)

Row | Binder | pKd
45 | NLQEHSTTSV [RSBN1, Q5VWQ0] | below the threshold
46 | TGLWKSETTV [ADGRA2, Q96PE1] | below the threshold

Molecular target: GRIP2_5, Q9C0E4
Sequence (Q9C0E4 544-642): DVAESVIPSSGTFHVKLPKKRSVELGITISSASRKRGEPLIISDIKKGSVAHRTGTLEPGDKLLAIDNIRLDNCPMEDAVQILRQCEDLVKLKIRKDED
Assay: holdup assay
Design: key: below the threshold = too weak to quantify, mostly under pKd 3.1 to 4
Settings: plain residues with an end cap or a label only (N-terminal biotin on a linker: ado-ado)

Row | Binder | pKd
47 | NLQEHSTTSV [RSBN1, Q5VWQ0] | below the threshold
48 | TGLWKSETTV [ADGRA2, Q96PE1] | below the threshold

Molecular target: HTRA2, O43464
Sequence (O43464 355-458): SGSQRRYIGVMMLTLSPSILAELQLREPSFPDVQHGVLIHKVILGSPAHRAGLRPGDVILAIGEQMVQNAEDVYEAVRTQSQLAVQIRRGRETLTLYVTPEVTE
Assay: holdup assay
Design: key: below the threshold = too weak to quantify, mostly under pKd 3.1 to 4
Settings: plain residues with an end cap or a label only (N-terminal biotin on a linker: ado-ado)

Row | Binder | pKd
49 | NLQEHSTTSV [RSBN1, Q5VWQ0] | below the threshold
50 | TGLWKSETTV [ADGRA2, Q96PE1] | below the threshold

Molecular target: GRIP2_3, Q9C0E4
Sequence (Q9C0E4 238-339): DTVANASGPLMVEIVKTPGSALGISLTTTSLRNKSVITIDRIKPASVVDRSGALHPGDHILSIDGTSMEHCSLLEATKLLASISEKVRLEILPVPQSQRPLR
Assay: holdup assay
Design: key: below the threshold = too weak to quantify, mostly under pKd 3.1 to 4
Settings: plain residues with an end cap or a label only (N-terminal biotin on a linker: ado-ado)

Row | Binder | pKd
51 | NLQEHSTTSV [RSBN1, Q5VWQ0] | below the threshold
52 | TGLWKSETTV [ADGRA2, Q96PE1] | below the threshold

Molecular target: T10, RADIL, Q96JH8
Assay: holdup assay
Design: key: below the threshold = too weak to quantify, mostly under pKd 3.1 to 4
Settings: plain residues with an end cap or a label only (N-terminal biotin on a linker: ado-ado)

Row | Binder | pKd
53 | NLQEHSTTSV [RSBN1, Q5VWQ0] | below the threshold
54 | TGLWKSETTV [ADGRA2, Q96PE1] | 3.95
